Assay results reported in patent US20200010513A1.

Tests used:
Experiment in all cases: cell-based or functional assay
[1] = target: TM-CIBN-NES-TEV-N-BLITz-6-tTA
[2] = target: TM-CIBN-NES-TEV-N-BLITz-1-tTA
[3] = target: TM-CIBN-TEV-N-TEVseq-tTA with intact TEVseq without a fusion to the AsLOV2 protein

NES-CRY2PHR-TEV-C was tested, and the SEAP assay, fold gene expression by blue light (HEK293T cells) [1] was greater than 20 fold, the SEAP assay, fold gene expression by blue light (HEK293T cells) [2] was greater than 20 fold and the SEAP assay, fold change of gene expression by blue light (HEK293T cells) [3] was 1.4 fold.
